Data on 2 molecules can be found in publication PMC4354016, “Centromeric binding and activity of Protein Phosphatase 4” (Nature Communications, 2015).

What all share (details): both partners purified
The target of assay [1] is T1, recombinant Flfl^1–168 (untagged) (Drosophila melanogaster, UniProt Q9VFS5 1-168).
T1 construct: pETDuet-1 (MCS1), TEV site between His tag and Flfl; source: E. coli Rosetta2(DE3)pLysS, purified (Ni-NTA, TEV cleavage, re-incubation with Ni-NTA); not shown: 6xHis, N-terminal, cleaved
T1 sequence (looked up): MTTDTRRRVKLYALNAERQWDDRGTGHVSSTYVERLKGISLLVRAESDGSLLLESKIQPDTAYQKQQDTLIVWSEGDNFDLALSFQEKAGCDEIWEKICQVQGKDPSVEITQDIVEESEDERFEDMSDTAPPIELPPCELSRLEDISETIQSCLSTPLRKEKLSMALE
The assay can be described thus: SEC; Flfl^1–168 and CENP-C^FBD mixed ~1:1 molar ratio, 16 h on ice, Superdex 200; fractions on SDS-PAGE, Coomassie. A general note: SEC sorts molecules by how far they enter the pores of the column.

Assay [2] concerns the target T2, Flfl^1–122 (Drosophila melanogaster, UniProt Q9VFS5 1-122).
T2 construct: Falafel (Flfl) residues 1-122, holds the EVH1 domain; residues 4-114 are in the final model; also called Falafel (1–122); His::TEV::Flfl^1–122aa; source: E. coli BL21 (DE3) RIL, purified (HisTrap, TEV cleavage, anion exchange, SEC); not shown: 6xHis, N-terminal, cleaved
T2 sequence (looked up): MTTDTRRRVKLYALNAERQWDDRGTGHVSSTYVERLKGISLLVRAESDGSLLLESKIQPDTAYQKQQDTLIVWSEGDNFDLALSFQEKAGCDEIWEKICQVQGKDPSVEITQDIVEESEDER
Description: crystal structure; Flfl^1–122 at 22 mg/ml incubated overnight with FIM peptide 1:1.3, sitting drop, ammonium sulfate; 1.5 Å.

Assay [3] has as its target T1, recombinant Flfl^1–168 (untagged). Description: peptide or protein array; substitution array: every residue of the 19-mer FIM replaced by the other amino acids, on cellulose membrane; 100 nM untagged Flfl^1–168, 4 °C overnight; anti-Flfl detection.

B1: recombinant CENP-C^FBD (untagged) (domain or fragment, Drosophila melanogaster, UniProt Q9VHP9 1002-1093, looked up)
chain: IDQNSDDVPSRNPSPSRTLLSDDVPSTSRAALEFLQRSQNMSKSRPPDESSADVVFKKPLAPAPRAKSKKGKSEVDKLKLAKMPVEAEELNT
notes: pETDuet-1 (MCS1), TEV site between His tag and FBD; also called His::TEV::CENP-C^FBD; source: E. coli Rosetta2(DE3)pLysS, purified (Ni-NTA, TEV cleavage, re-incubation with Ni-NTA); not shown: 6xHis, N-terminal, cleaved
For B1, the binding result in assay [1] is “binds”.

B2: CENP-C^FIM peptide (peptide)
peptide: PDESSADVVFKKPLAPAPR
notes: source: synthetic peptide (in solution for crystallisation; spotted onto a cellulose membrane for the substitution array)
Turning to B2, the binding result in assay [2] and in assay [3] was “binds” each time.
